Usually Kd stands for the constant that tells how readily two partners part at equilibrium.

This assay addresses T1, EphB4 labelled with NT-647 dye (UniProt P54760 16-539, NT-647 dye through primary amide coupling).
T1 sequence (looked up): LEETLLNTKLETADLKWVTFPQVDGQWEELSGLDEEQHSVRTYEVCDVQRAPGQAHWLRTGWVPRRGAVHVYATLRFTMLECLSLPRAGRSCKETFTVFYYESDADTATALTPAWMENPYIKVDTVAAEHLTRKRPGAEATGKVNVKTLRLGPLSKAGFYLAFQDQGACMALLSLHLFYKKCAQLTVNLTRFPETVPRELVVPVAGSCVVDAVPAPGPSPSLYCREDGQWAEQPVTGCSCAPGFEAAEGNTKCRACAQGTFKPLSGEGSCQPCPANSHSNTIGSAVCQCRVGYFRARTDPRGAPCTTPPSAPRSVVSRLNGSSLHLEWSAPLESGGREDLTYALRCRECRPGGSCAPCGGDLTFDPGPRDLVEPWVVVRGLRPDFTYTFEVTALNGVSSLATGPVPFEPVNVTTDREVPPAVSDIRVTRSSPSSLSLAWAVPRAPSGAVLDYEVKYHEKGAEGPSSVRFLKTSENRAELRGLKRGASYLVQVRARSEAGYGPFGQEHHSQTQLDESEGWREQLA
The experiment in a line: MST.

B1: EphrinB2/Fc, purified recombinant protein (Fc fusion, UniProt P52799 28-229, looked up)
chain: IVLEPIYWNSSNSKFLPGQGLVLYPQIGDKLDIICPKVDSKTVGQYEYYKVYMVDKDQADRCTIKKENTPLLNCAKPDQDIKFTIKFQEFSPNLWGLEFQKNKDYYIISTSNGSLEGLDNQEGGVCQTRAMKILMKVGQDASSAGSTRNKDPTRRPELEAGTNGRSSTTSPFVKPNPGSSTDGNSAGHSGNNILGSEVALFA
B1 returned a Kd of 140 nM.

The record behind these values is paper PMC4643364 (Cancer cell, 2015).
